T1: VapC35 toxin (M. tuberculosis, UniProt P9WF67 1-135)
T1 sequence: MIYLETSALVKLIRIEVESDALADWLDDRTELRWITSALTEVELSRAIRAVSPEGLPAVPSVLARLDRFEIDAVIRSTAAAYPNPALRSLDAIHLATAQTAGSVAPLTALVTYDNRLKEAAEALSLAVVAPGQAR

B1: VapC3 toxin (natural protein)
chain: MRASPTSPPEQVVVDASAMVDLLARTSDRCSAVRARLARTAMHAPAHFDAEVLSALGRMQRAGALTVAYVDAALEELRQVPVTRHGLSSLLAGAWSRRDTLRLTDALYVELAETAGLVLLTTDERLARAWPSAHAIG
B2: VapB35 antitoxin (natural protein)
chain: MNEVSIRTLNQETSKVLARVKRGEEINLTERGKVIARIIPASAGPLDSLISTGSVQPARVHGPAPRPTIPMRGGLDSGTLLERMRAEERY
B3: VapB3 antitoxin (natural protein)
chain: MLSRRTKTIVVCTLVCMARLNVYVPDELAERARARGLNVSALTQAAISAELENSATDAWLEGLEPRSTGARHDDVLGAIDAARDEFEA

“And” between values parts separate entries of the source, which are not always exact repeats. Equal values may be shown once.

The data set “SEC-MALS” deals with the molecule itself. In words: SEC-MALS.
The target of data set [1] is T1, VapC35 toxin. Nature of the data set: MST.
Data set [2] deals with T1, VapC35 toxin. In words: SEC-MALS.
In data set [3] the target is B1. Nature of the data set: MST.
Data set [4] has as its target B1. Nature of the data set: SEC-MALS. On the technique in general: In gel filtration, larger molecules generally elute earlier.

The values below come from PMC11868609 (Communications Biology, 2025).

Broadly, the stoichiometry N is a count of units in the complex or per binding partner. As a reminder, the Kd is the concentration at which binding is half-saturated. Lower therefore signals higher affinity.

Take B1: the “stoichiometry N” value in “SEC-MALS” worked out at 2 subunits.
In the case of B2, binding in the data set with VapC35 toxin [1] was characterised by a dissociation constant (Kd) of 1 nM. Moreover, the “stoichiometry N” value with VapC35 toxin [2] is 0.5 antitoxin chains per toxin chain (2:4) and 1 antitoxin chains per toxin chain (4:4).
Turning to B3, the Kd with VapC3 toxin [3] is roughly 7 nM; with VapC35 toxin [1] it was roughly 14 nM. Moreover, the “stoichiometry N” value with VapC3 toxin [4] was 0.5 antitoxin chains per toxin chain (2:4) and 1 antitoxin chains per toxin chain (4:4); with VapC35 toxin [2], 0.5 antitoxin chains per toxin chain (2:4) and 1 antitoxin chains per toxin chain (4:4).
